Results reported in paper PMC10716376, “The assembly of the Mitochondrial Complex I Assembly complex uncovers a redox pathway coordination” (Nature Communications, 2023).

T1: ECSIT_(CTER) (residues 221-431) (human, UniProt Q9BQ95 221-431)
T1 chain: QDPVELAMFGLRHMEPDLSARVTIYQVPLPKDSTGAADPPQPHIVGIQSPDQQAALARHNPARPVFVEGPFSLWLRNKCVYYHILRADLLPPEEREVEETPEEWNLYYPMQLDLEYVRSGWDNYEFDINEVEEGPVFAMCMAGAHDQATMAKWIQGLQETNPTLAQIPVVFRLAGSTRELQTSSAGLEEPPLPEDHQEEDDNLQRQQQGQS

B1: ACAD9WT (mature ACAD9, residues 38-621) (enzyme, human, UniProt Q9H845 38-621, looked up)
chain: AFAKELFLGKIKKKEVFPFPEVSQDELNEINQFLGPVEKFFTEEVDSRKIDQEGKIPDETLEKLKSLGLFGLQVPEEYGGLGFSNTMYSRLGEIISMDGSITVTLAAHQAIGLKGIILAGTEEQKAKYLPKLASGEHIAAFCLTEPASGSDAASIRSRATLSEDKKHYILNGSKVWITNGGLANIFTVFAKTEVVDSDGSVKDKITAFIVERDFGGVTNGKPEDKLGIRGSNTCEVHFENTKIPVENILGEVGDGFKVAMNILNSGRFSMGSVVAGLLKRLIEMTAEYACTRKQFNKRLSEFGLIQEKFALMAQKAYVMESMTYLTAGMLDQPGFPDCSIEAAMVKVFSSEAAWQCVSEALQILGGLGYTRDYPYERILRDTRILLIFEGTNEILRMYIALTGLQHAGRILTTRIHELKQAKVSTVMDTVGRRLRDSLGRTVDLGLTGNHGVVHPSLADSANKFEENTYCFGRTVETLLLRFGKTIMEEQLVLKRVANILINLYGMTAVLSRASRSIRIGLRNHDHEVLLANTFCVEAYLQNLFSLSQLDKYAPENLDEQIKKVSQQILEKRAYICAHPLDRTC
notes: human ACAD9, mature form, residues 38-621; E. coli codon-optimised synthetic gene; Cloned into pET-21d(+); Plasmid details are in Supplementary Data 1; source: E. coli C43 (DE3), purified (HisTrap, dialysed in SEC buffer)

Assays:
VLCAD_(ACAD9) (human) = VLCAD_(ACAD9) (human) (UniProt P49748); experiment: mass photometry; ACAD9 (or VLCAD) at 20-50 nM in 25 mM HEPES pH 7.5, 250 mM NaCl, or diluted in 4.8 uM ECSIT solution for complex formation
[1] = molecular target: the molecule itself; experiment: cryo-EM structure; ACAD9WT-ECSIT_(CTER) reconstituted (molar ratio 1:1.25) and purified by gel filtration; 25 mM HEPES, 300 mM NaCl, 1 mM TCEP, pH 7.5; C2 symmetry imposed
[2] = molecular target: T1, ECSIT_(CTER) (residues 221-431); experiment: ITC
[3] = molecular target: the molecule itself; experiment: mass photometry; ACAD9 (or VLCAD) at 20-50 nM in 25 mM HEPES pH 7.5, 250 mM NaCl, or diluted in 4.8 uM ECSIT solution for complex formation
[4] = molecular target: B1; experiment: dynamic light scattering; 278 K, protein at 1-2 mg/ml; complexes reconstituted at molar ratio 1:1.25; settings: both partners purified

binding result [4]	Molecule	stoichiometry N [3]	further results
–	VLCAD_(ACAD9) (from UniProt P49748 72-655) (enzyme)	–	stoichiometry N (VLCAD_(ACAD9) (human)): 2
–	B1	–	stoichiometry N [1]: 2; Kd [2]: 1450 nM
–	ACAD9_(VLCAD) (enzyme, human, UniProt Q9H845 38-621, looked up, human ACAD9, residues 38-621, residues 401-407 LGGLGYT replaced by the corresponding VLCAD residues 437-443 MGGMGFM; also called ACAD9 mutated to mimic VLCAD; source: E. coli C43 (DE3), purified (HisTrap, dialysed in SEC buffer)) AFAKELFLGKIKKKEVFPFPEVSQDELNEINQFLGPVEKFFTEEVDSRKIDQEGKIPDETLEKLKSLGLFGLQVPEEYGGLGFSNTMYSRLGEIISMDGSITVTLAAHQAIGLKGIILAGTEEQKAKYLPKLASGEHIAAFCLTEPASGSDAASIRSRATLSEDKKHYILNGSKVWITNGGLANIFTVFAKTEVVDSDGSVKDKITAFIVERDFGGVTNGKPEDKLGIRGSNTCEVHFENTKIPVENILGEVGDGFKVAMNILNSGRFSMGSVVAGLLKRLIEMTAEYACTRKQFNKRLSEFGLIQEKFALMAQKAYVMESMTYLTAGMLDQPGFPDCSIEAAMVKVFSSEAAWQCVSEALQIMGGMGFMRDYPYERILRDTRILLIFEGTNEILRMYIALTGLQHAGRILTTRIHELKQAKVSTVMDTVGRRLRDSLGRTVDLGLTGNHGVVHPSLADSANKFEENTYCFGRTVETLLLRFGKTIMEEQLVLKRVANILINLYGMTAVLSRASRSIRIGLRNHDHEVLLANTFCVEAYLQNLFSLSQLDKYAPENLDEQIKKVSQQILEKRAYICAHPLDRTC	2	–
–	ACAD9_(A184S/SR194TS) (enzyme, human, UniProt Q9H845 38-621, looked up, human ACAD9, residues 38-621, A184S and SR194TS combined (mimics the VLCAD gatekeeper loop); source: E. coli C43 (DE3), purified (HisTrap, dialysed in SEC buffer)) AFAKELFLGKIKKKEVFPFPEVSQDELNEINQFLGPVEKFFTEEVDSRKIDQEGKIPDETLEKLKSLGLFGLQVPEEYGGLGFSNTMYSRLGEIISMDGSITVTLAAHQAIGLKGIILAGTEEQKAKYLPKLASGEHIAAFCLTEPSSGSDAASIRTSATLSEDKKHYILNGSKVWITNGGLANIFTVFAKTEVVDSDGSVKDKITAFIVERDFGGVTNGKPEDKLGIRGSNTCEVHFENTKIPVENILGEVGDGFKVAMNILNSGRFSMGSVVAGLLKRLIEMTAEYACTRKQFNKRLSEFGLIQEKFALMAQKAYVMESMTYLTAGMLDQPGFPDCSIEAAMVKVFSSEAAWQCVSEALQILGGLGYTRDYPYERILRDTRILLIFEGTNEILRMYIALTGLQHAGRILTTRIHELKQAKVSTVMDTVGRRLRDSLGRTVDLGLTGNHGVVHPSLADSANKFEENTYCFGRTVETLLLRFGKTIMEEQLVLKRVANILINLYGMTAVLSRASRSIRIGLRNHDHEVLLANTFCVEAYLQNLFSLSQLDKYAPENLDEQIKKVSQQILEKRAYICAHPLDRTC	2	–
–	ACAD9_(S191A) (enzyme, human, UniProt Q9H845 38-621, looked up, human ACAD9, residues 38-621, S191A; One FAD per protomer in the cryo-EM structure; source: E. coli C43 (DE3), purified (HisTrap, dialysed in SEC buffer)) AFAKELFLGKIKKKEVFPFPEVSQDELNEINQFLGPVEKFFTEEVDSRKIDQEGKIPDETLEKLKSLGLFGLQVPEEYGGLGFSNTMYSRLGEIISMDGSITVTLAAHQAIGLKGIILAGTEEQKAKYLPKLASGEHIAAFCLTEPASGSDAAAIRSRATLSEDKKHYILNGSKVWITNGGLANIFTVFAKTEVVDSDGSVKDKITAFIVERDFGGVTNGKPEDKLGIRGSNTCEVHFENTKIPVENILGEVGDGFKVAMNILNSGRFSMGSVVAGLLKRLIEMTAEYACTRKQFNKRLSEFGLIQEKFALMAQKAYVMESMTYLTAGMLDQPGFPDCSIEAAMVKVFSSEAAWQCVSEALQILGGLGYTRDYPYERILRDTRILLIFEGTNEILRMYIALTGLQHAGRILTTRIHELKQAKVSTVMDTVGRRLRDSLGRTVDLGLTGNHGVVHPSLADSANKFEENTYCFGRTVETLLLRFGKTIMEEQLVLKRVANILINLYGMTAVLSRASRSIRIGLRNHDHEVLLANTFCVEAYLQNLFSLSQLDKYAPENLDEQIKKVSQQILEKRAYICAHPLDRTC	2	–
binds	ECSIT_(CTER-W324A) (domain or fragment, human, UniProt Q9BQ95 221-431, looked up, human ECSIT, residues 221-431, W324A; also called ECSIT-W324A; ECSIT_(W324A); source: E. coli BL21 Star (DE3), purified (HisTrap, SEC)) QDPVELAMFGLRHMEPDLSARVTIYQVPLPKDSTGAADPPQPHIVGIQSPDQQAALARHNPARPVFVEGPFSLWLRNKCVYYHILRADLLPPEEREVEETPEEANLYYPMQLDLEYVRSGWDNYEFDINEVEEGPVFAMCMAGAHDQATMAKWIQGLQETNPTLAQIPVVFRLAGSTRELQTSSAGLEEPPLPEDHQEEDDNLQRQQQGQS	–	–
binds	ECSIT_(CTER-Y328F) (domain or fragment, human, UniProt Q9BQ95 221-431, looked up, human ECSIT, residues 221-431, Y328F; also called ECSIT_(Y328F); source: E. coli BL21 Star (DE3), purified (HisTrap, SEC)) QDPVELAMFGLRHMEPDLSARVTIYQVPLPKDSTGAADPPQPHIVGIQSPDQQAALARHNPARPVFVEGPFSLWLRNKCVYYHILRADLLPPEEREVEETPEEWNLYFPMQLDLEYVRSGWDNYEFDINEVEEGPVFAMCMAGAHDQATMAKWIQGLQETNPTLAQIPVVFRLAGSTRELQTSSAGLEEPPLPEDHQEEDDNLQRQQQGQS	–	–
binds	ECSIT_(CTER-Y327A) (domain or fragment, human, UniProt Q9BQ95 221-431, looked up, human ECSIT, residues 221-431, Y327A; also called ECSIT_(Y327A); source: E. coli BL21 Star (DE3), purified (HisTrap, SEC)) QDPVELAMFGLRHMEPDLSARVTIYQVPLPKDSTGAADPPQPHIVGIQSPDQQAALARHNPARPVFVEGPFSLWLRNKCVYYHILRADLLPPEEREVEETPEEWNLAYPMQLDLEYVRSGWDNYEFDINEVEEGPVFAMCMAGAHDQATMAKWIQGLQETNPTLAQIPVVFRLAGSTRELQTSSAGLEEPPLPEDHQEEDDNLQRQQQGQS	–	–
binds	ECSIT_(CTER-Y327F) (domain or fragment, human, UniProt Q9BQ95 221-431, looked up, human ECSIT, residues 221-431, Y327F; also called ECSIT_(Y327F); source: E. coli BL21 Star (DE3), purified (HisTrap, SEC)) QDPVELAMFGLRHMEPDLSARVTIYQVPLPKDSTGAADPPQPHIVGIQSPDQQAALARHNPARPVFVEGPFSLWLRNKCVYYHILRADLLPPEEREVEETPEEWNLFYPMQLDLEYVRSGWDNYEFDINEVEEGPVFAMCMAGAHDQATMAKWIQGLQETNPTLAQIPVVFRLAGSTRELQTSSAGLEEPPLPEDHQEEDDNLQRQQQGQS	–	–
binds	ECSIT_(CTER-Y328A) (domain or fragment, human, UniProt Q9BQ95 221-431, looked up, human ECSIT, residues 221-431, Y328A; also called ECSIT_(Y328A); source: E. coli BL21 Star (DE3), purified (HisTrap, SEC)) QDPVELAMFGLRHMEPDLSARVTIYQVPLPKDSTGAADPPQPHIVGIQSPDQQAALARHNPARPVFVEGPFSLWLRNKCVYYHILRADLLPPEEREVEETPEEWNLYAPMQLDLEYVRSGWDNYEFDINEVEEGPVFAMCMAGAHDQATMAKWIQGLQETNPTLAQIPVVFRLAGSTRELQTSSAGLEEPPLPEDHQEEDDNLQRQQQGQS	–	–
–	VLCADWT (very long chain acyl-CoA dehydrogenase, res. 72-655) (enzyme, human, UniProt P49748 72-655, looked up, human very long-chain acyl-CoA dehydrogenase (VLCAD), residues 72-655; plasmid ACADVL from Addgene #38838; VLCAD-related constructs were cloned into pNIC28-BSA; also called ACADVL; source: E. coli Rosetta 2 (DE3), purified (HisTrap, SEC)) SFAVGMFKGQLTTDQVFPYPSVLNEEQTQFLKELVEPVSRFFEEVNDPAKNDALEMVEETTWQGLKELGAFGLQVPSELGGVGLCNTQYARLVEIVGMHDLGVGITLGAHQSIGFKGILLFGTKAQKEKYLPKLASGETVAAFCLTEPSSGSDAASIRTSAVPSPCGKYYTLNGSKLWISNGGLADIFTVFAKTPVTDPATGAVKEKITAFVVERGFGGITHGPPEKKMGIKASNTAEVFFDGVRVPSENVLGEVGSGFKVAMHILNNGRFGMAAALAGTMRGIIAKAVDHATNRTQFGEKIHNFGLIQEKLARMVMLQYVTESMAYMVSANMDQGATDFQIEAAISKIFGSEAAWKVTDECIQIMGGMGFMKEPGVERVLRDLRIFRIFEGTNDILRLFVALQGCMDKGKELSGLGSALKNPFGNAGLLLGEAGKQLRRRAGLGSGLSLSGLVHPELSRSGELAVRALEQFATVVEAKLIKHKKGIVNEQFLLQRLADGAIDLYAMVVVLSRASRSLSEGHPTAQHEKMLCDTWCIEAAARIREGMAALQSDPWQQELYRNFKSISKALVERGGVVTSNPLGF	2	–
